Consider 1 molecule from paper PMC2515629 (PLoS ONE, 2008).

The target in this test is T1, recombinant BoNT/A light chain (recombinant N-terminal domain of BoNT/A, amino acids 1-425) (Clostridium botulinum type A, …, UniProt P0DPI0).
T1 construct: source: E. coli, purified following published protocols
In words: kinetic exclusion assay (KinExA). The note with it: both partners purified.

T1 sequence (P0DPI0 1-425): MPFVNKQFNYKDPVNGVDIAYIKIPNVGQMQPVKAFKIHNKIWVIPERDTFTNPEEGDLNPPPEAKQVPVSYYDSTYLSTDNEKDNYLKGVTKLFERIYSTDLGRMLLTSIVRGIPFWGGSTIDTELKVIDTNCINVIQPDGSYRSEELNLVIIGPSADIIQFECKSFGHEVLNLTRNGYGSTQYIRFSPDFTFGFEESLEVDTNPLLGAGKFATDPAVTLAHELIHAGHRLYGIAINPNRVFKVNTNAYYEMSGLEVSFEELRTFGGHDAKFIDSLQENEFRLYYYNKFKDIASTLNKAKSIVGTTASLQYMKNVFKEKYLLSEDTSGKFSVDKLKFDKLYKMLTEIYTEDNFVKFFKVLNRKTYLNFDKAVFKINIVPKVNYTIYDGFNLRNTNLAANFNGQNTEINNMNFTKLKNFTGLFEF

B1: 4LCA antibody (antibody, V domains shown)
VH: QLQLQESGPGLVKPSETLSLTCTVSGGSISSSSYFWGWIRQPPGKGLEWIGYIHYSGNTYYNPSLTSRVTMSVDKSKNQFSLKLTSVTAADTALYSCATFLGRGAPFDPWGQGTLVTVSS
VL: QPPSVSVAPGQTARITCGGTNIGSKSVHWYQRQPGQAPVLVIYYDTDRPSGIPERFSGSNSENTATLTISRVEAGDEADYYCQVWGSGSDHPGVFGGGTKLTVL
notes: also called 4LCA mAb; 4LCA human monoclonal antibody
With B1, the Kd (as a rule, a measure of binding affinity in units of concentration) is 0.031 nM; the koff (in general, the rate constant with which the complex falls apart) was found to be 7.1e-05 s⁻¹; the on-rate (kon) (as a rule, the rate constant with which the complex forms) amounted to 2.3e+06 M⁻¹ s⁻¹.
